Laboratory results published in IntAct's records for PubMed 29691401.

B1: "Lethal(3)malignant brain tumor-like protein 3" (Homo sapiens), Q96JM7 (parent)
chain: MTESASSTSGQEFDVFSVMDWKDGVGTLPGSDLKFRVNEFGALEVITDENEMENVKKATATTTWMVPTAQEAPTSPPSSRPVFPPAYWTSPPGCPTVFSEKTGMPFRLKDPVKVEGLQFCENCCQYGNVDECLSGGNYCSQNCARHIKDKDQKEERDVEEDNEEEDPKCSRKKKPKLSLKADTKEDGEERDDEMENKQDVRILRGSQRARRKRRGDSAVLKQGLPPKGKKAWCWASYLEEEKAVAVPAKLFKEHQSFPYNKNGFKVGMKLEGVDPEHQSVYCVLTVAEVCGYRIKLHFDGYSDCYDFWVNADALDIHPVGWCEKTGHKLHPPKGYKEEEFNWQTYLKTCKAQAAPKSLFENQNITVIPSGFRVGMKLEAVDKKNPSFICVATVTDMVDNRFLVHFDNWDESYDYWCEASSPHIHPVGWCKEHRRTLITPPGYPNVKHFSWDKYLEETNSLPAPARAFKVKPPHGFQKKMKLEVVDKRNPMFIRVATVADTDDHRVKVHFDGWNNCYDYWIDADSPDIHPVGWCSKTGHPLQPPLSPLELMEASEHGGCSTPGCKGIGHFKRARHLGPHSAANCPYSEINLNKDRIFPDRLSGEMPPASPSFPRNKRTDANESSSSPEIRDQHADDVKEDFEERTESEMRTSHEARGAREEPTVQQAQRRSAVFLSFKSPIPCLPLRWEQQSKLLPTVAGIPASKVSKWSTDEVSEFIQSLPGCEEHGKVFKDEQIDGEAFLLMTQTDIVKIMSIKLGPALKIFNSILMFKAAEKNSHNEL

Variants of: B1
Conditions: with dnmt1_human DNMT1, P26358
dnmt1_human DNMT1, P26358, sequence (P26358 whole entry): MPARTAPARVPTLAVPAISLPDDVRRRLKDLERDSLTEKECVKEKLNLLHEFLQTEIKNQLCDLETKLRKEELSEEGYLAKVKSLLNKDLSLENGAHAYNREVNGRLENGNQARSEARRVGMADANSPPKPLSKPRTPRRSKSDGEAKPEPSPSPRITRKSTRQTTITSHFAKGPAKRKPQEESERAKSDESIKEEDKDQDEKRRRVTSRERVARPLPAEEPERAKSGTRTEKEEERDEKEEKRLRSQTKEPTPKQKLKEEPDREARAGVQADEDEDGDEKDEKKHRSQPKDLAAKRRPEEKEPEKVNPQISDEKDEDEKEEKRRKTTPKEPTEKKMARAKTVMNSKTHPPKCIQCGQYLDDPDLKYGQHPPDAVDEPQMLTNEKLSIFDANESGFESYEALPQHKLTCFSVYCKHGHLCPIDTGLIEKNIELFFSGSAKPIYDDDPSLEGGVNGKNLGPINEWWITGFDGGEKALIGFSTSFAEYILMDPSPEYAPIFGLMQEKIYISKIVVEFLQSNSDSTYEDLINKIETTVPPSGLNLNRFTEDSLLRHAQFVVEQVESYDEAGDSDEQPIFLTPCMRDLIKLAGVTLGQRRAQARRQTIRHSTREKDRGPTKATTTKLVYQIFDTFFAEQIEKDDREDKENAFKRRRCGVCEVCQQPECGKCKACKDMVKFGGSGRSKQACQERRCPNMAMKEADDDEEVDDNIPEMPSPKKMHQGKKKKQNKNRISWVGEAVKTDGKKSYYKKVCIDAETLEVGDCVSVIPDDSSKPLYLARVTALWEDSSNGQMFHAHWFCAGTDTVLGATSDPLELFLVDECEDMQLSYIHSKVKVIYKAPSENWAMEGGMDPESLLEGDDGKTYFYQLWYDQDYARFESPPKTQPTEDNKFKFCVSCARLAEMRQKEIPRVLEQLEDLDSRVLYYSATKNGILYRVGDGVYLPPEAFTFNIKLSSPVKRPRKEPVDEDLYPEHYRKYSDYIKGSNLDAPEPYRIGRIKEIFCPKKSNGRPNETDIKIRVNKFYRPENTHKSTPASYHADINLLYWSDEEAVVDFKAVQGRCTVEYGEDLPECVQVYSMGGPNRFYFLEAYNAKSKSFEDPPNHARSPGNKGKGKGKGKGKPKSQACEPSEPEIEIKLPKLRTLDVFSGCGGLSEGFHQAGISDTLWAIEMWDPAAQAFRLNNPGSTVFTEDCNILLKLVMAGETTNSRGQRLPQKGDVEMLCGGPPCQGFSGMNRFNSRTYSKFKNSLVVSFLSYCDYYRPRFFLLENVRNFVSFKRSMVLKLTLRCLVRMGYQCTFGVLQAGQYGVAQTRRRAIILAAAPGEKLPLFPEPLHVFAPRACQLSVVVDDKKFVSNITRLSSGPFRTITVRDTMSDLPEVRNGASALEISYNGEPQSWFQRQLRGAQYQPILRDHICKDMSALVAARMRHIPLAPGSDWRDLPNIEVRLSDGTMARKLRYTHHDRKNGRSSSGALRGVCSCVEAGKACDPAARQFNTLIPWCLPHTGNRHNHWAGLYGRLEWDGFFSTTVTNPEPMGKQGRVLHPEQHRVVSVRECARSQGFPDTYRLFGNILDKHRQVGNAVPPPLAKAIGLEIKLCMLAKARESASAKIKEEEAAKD

Row | Variant | effect of a mutation on the interaction
1 | D381N | disrupting interaction strength

Variants of: B1
Conditions: with dnmt1_human DNMT1, P26358
Remark: another data set of the same source

Row | Variant | effect of a mutation on the interaction
2 | D381N | decreasing interaction strength
